Experimental data taken from patent publication US20050153395A1 (CHILDREN S HOSPITAL, published 2005).

B1: CTGF4 mutant M1 (I257A, R258A, T259A, P260A) (ligand)
chain: EENIKKGKKCAAAAKISKPIKFELSGCTSMKTYRAKFCGVCTDGRCCTPHRTTTLPVEFKCPDGEVMKKNMMFIKTCACHYNCPGDNDIFESLYYRKMYGDMA
B2: CTGF4 mutant M3 (P265A, I266A, K267A, F268A) (ligand)
chain: EENIKKGKKCIRTPKISKAAAAELSGCTSMKTYRAKFCGVCTDGRCCTPHRTTTLPVEFKCPDGEVMKKNMMFIKTCACHYNCPGDNDIFESLYYRKMYGDMA
B3: CTGF4 mutant M4 (E269A, L270A, S271A, G272A) (ligand)
chain: EENIKKGKKCIRTPKISKPIKFAAAACTSMKTYRAKFCGVCTDGRCCTPHRTTTLPVEFKCPDGEVMKKNMMFIKTCACHYNCPGDNDIFESLYYRKMYGDMA

What follows are binders tested against integrin αvβ3 on activated rat hepatic stellate cells (HSC) (rat, UniProt Q8R2H2 26-787) (assay: cell-based or functional assay).
Sequence of integrin αvβ3 on activated rat hepatic stellate cells (HSC) (Q8R2H2 26-787): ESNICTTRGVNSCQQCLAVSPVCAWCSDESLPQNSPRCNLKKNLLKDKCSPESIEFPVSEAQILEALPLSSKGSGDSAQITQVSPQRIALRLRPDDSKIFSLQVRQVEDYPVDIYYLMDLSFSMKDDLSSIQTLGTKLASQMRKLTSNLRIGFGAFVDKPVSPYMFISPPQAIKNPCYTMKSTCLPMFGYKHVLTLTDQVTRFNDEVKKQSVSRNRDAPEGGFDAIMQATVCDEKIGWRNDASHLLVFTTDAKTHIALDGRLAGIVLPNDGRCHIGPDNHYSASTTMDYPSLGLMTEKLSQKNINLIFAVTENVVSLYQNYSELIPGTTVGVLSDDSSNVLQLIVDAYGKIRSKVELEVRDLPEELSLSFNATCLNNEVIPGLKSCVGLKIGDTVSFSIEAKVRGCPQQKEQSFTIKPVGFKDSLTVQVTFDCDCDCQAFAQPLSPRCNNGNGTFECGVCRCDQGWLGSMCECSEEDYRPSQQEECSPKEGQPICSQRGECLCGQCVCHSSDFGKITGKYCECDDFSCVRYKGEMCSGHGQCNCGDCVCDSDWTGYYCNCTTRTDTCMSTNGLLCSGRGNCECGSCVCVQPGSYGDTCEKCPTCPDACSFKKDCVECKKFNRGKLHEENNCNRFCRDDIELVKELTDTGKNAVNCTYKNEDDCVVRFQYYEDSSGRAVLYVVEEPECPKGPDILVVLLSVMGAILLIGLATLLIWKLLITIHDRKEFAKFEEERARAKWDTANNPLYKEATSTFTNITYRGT

Row | Binder | HSC adhesion, level relative to wild-type CTGF4
1 | B1 | 33%
2 | B2 | 80%
3 | B3 | 46%
